Experiment [1] concerns the target T1, human CD70 expressed on the surface of cells (human, UniProt P32970 1-193).
T1 construct: whole, on cells; also called cell surface expressed CD70; CD70 on cells
T1 sequence (looked up): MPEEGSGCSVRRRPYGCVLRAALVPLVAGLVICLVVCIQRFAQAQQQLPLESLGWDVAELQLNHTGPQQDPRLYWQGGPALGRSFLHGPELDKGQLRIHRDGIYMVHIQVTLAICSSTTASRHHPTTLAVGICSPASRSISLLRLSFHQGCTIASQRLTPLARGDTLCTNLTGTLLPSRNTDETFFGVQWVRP
Briefly: FACS MFI at 37 C, Raji cells; reference SGN70. As to the method: (§1) Several cancer cell lines were tested by FACS analysis for binding of ARGX-110 and SGN70 (described in US2010/0129362) at saturating mAb concentrations (at least 2 μg/ml). This was either done at 4° C. (1 hour incubation of cells with mAbs) or at 37° C. (15 minutes incubation of cells with mAbs). Binding was detected using anti-hIgG1-Fc-FITC (AF006, Binding Site) or anti-hIgG1-Fc-PE antibody (eBioscience, 12-4998). Fluorescence was measured using a flow cytometer.

Experiment [2] addresses T1, human CD70 expressed on the surface of …. As to the kind of experiment: FACS MFI at 37 C, Mino cells; reference SGN70. On the procedure: as §1
The target is the same in experiment [3]. As to the kind of experiment: FACS MFI at 37 C, Mec1 cells; reference SGN70. On the procedure:
as §1

Experiment [4] has the same target. Briefly: FACS MFI at 37 C, Caki-1 cells; reference SGN70. On the procedure:
as §1

In experiment [5] the target is T2, rhesus CD70 on LCL8664 cells (rhesus, UniProt F7GPA5 123-316).
T2 construct: whole, on cells
T2 sequence: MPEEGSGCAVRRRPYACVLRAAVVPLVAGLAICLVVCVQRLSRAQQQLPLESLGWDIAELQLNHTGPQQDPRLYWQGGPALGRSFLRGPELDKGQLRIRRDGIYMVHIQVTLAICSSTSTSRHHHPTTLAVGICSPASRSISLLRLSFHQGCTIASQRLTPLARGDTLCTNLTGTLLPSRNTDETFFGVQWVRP
As to the kind of experiment: flow cytometry on rhesus LCL8664 cells, goat anti human IgG1 FITC [panel Rhesus monkey]. (A flow cytometer gives signals particle by particle.)

Experiment [6] addresses T3, human-mouse CD70 chimera chim-2.2 (Flag-TNC-CD70).
T3 construct: also called chimera 2.2; not shown: N-terminal Flag tag, TNC trimerisation domain and any linkers of the Flag-TNC-CD70 construct
T3 chain: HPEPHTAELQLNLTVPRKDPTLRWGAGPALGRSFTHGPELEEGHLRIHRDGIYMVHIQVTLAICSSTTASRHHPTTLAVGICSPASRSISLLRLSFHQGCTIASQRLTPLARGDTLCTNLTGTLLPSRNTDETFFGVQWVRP
Briefly: ELISA; chimera captured by anti-Flag mAb; anti-human-Fc-HRP. As to the method:
(§2) A Maxisorb (Nunc) microtiter plate was coated with 3.5 μg/ml mouse M2 anti-Flag mAb (Sigma Aldrich, F3165) and the different chimeras were captured. A dilution series of the CD70 mAbs to be tested was applied starting at a concentration of 10 μg/ml and making 3-fold dilutions. After 2 hours, binding was detected using anti-human-Fc-HRP at a 16000-fold dilution. Staining was done with ABTS and OD at 405 nm was measured. As a positive control, CD27-Fc was applied which is able to bind to both human and mouse CD70 with good affinity as well as to the chimeric human-mouse CD70 variants.
(In general: ELISA stands for enzyme-linked immunosorbent assay.)

In experiment [7] the target is T4, human-mouse CD70 chimera chim-2.4 (Flag-TNC-CD70).
T4 construct: also called chimera 2.4
T4 chain: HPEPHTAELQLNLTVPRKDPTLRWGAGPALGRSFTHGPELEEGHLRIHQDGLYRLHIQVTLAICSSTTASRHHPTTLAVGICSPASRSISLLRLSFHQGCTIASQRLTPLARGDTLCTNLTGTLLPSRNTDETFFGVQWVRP
Described as above. As to the method: as §2

In experiment [8] the target is T5, human-mouse CD70 chimera chim-2.3 (Flag-TNC-CD70).
T5 construct: also called chimera 2.3
T5 chain: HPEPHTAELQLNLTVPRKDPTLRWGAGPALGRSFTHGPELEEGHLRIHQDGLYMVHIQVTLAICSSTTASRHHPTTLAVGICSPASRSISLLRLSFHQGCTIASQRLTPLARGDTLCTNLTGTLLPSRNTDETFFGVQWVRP
Described as above. As to the method: as §2

The target of experiment [9] is T6, human-mouse CD70 chimera chim-2.1 (Flag-TNC-CD70) (Soluble homotrimer held by the TNC domain; one CD70 ECD chain is given.).
T6 construct: also called chimera 2.1; not shown: N-terminal Flag tag, TNC (tenascin-C) trimerisation domain and any linkers of the Flag-TNC-CD70 construct
T6 chain: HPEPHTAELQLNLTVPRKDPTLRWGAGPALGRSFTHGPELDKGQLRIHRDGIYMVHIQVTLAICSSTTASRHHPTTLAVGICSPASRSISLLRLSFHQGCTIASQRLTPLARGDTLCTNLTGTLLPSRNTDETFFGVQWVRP
The experiment is described as above. On the procedure:
as §2

Experiment [10] deals with T7, human-mouse CD70 chimera chim-1 (Flag-TNC-CD70) (Homo sapiens (Human), UniProt P32970 58-193, Soluble homotrimer held by the TNC domain; one CD70 ECD chain is given.).
T7 construct: also called chimera 1; not shown: N-terminal Flag tag, TNC (tenascin-C) trimerisation domain and any linkers of the Flag-TNC-CD70 construct
T7 chain: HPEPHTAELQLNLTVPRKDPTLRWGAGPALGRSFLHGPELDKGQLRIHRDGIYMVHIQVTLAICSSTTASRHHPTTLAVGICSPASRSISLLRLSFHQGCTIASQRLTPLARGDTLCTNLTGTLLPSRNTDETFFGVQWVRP
Described as above. As to the method:
as §2

Experiment [11] concerns the target T1, human CD70 expressed on the surface of …. As to the kind of experiment: FACS MFI at 37 C, MHHPREB1 cells; reference SGN70. On the procedure: as §1

B1: ARGX-110 (non-fucosylated 41D12 human IgG1) (antibody, V domains shown)
VH: EVQLVESGGGLVQPGGSLRLSCAASGFTFSVYYMNWVRQAPGKGLEWVSDINNEGGTTYYADSVKGRFTISRDNSKNSLYLQMNSLRAEDTAVYYCARDAGYSNHVPIFDSWGQGTLVTVSS
VL: QAVVTQEPSLTVSPGGTVTLTCGLKSGSVTSDNFPTWYQQTPGQAPRLLIYNTNTRHSGVPDRFSGSILGNKAALTITGAQADDEAEYFCALFISNPSVEFGGGTQLTVLG
notes: also called 41D12 (ARGX-110)
In the case of B1, the “Signal in FACS of ARGX-110/signal in FACS of SGN70” value in [1] stood at 1.2 ratio; in [2] it was 1 ratio; in [3], 1.2 ratio; in experiment [4], 1.9 ratio; in experiment [11], 1.2 ratio. For the same molecule, in experiment [5], the “EC50 (read off the curve)” value is around 0.2 µg/mL. The 50% effective concentration (EC50) in experiment [6] came out at 0.016 µg/mL; in [7] it was 0.014 µg/mL; in experiment [8], 0.015 µg/mL; in [9], 0.015 µg/mL; in experiment [10], 0.027 µg/mL.

Broadly, the EC50 (read off the curve) is the concentration giving half of the maximal effect. A high value points to a need for much substance. By EC50 is commonly meant the midpoint of the concentration-response curve. Lower therefore signals higher potency in that assay.

The values are drawn from patent publication US20150266963A1 (ARGEN X B V, published 2015).
